# Laboratory results published in article PMC5357909, “Structural and functional studies of a noncanonical Dicer from Entamoeba histolytica” (Scientific Reports, 2017).
# B1: SeMet-EhRNaseIII194 (selenomethionine-labeled EhRNaseIII, aa 1-194) (domain or fragment, Entamoeba histolytica, UniProt C4LU64 1-194, looked up)
# chain: MSSTTLHNAMQYTAFDVLSSILNLMKADPLYDLLQLNQAYSSQDQEYEKNEFYGDSYLEERASSLVLKFLRKYEQIPFEMYSGLRIHTVKNQTLGEIFDLLHLGDTKTFEKKKKGDLVESLIGGCVLLSQRENATLFLLFAHALIDYIFYHSSYIYFNANPPKLVKEEIITDIQNWFKDKLFYYRSSLEKYQTD
# modifications: selenomethionine substituted (Se-Met) for methionine
# notes: EhRNaseIII, the only RNaseIII protein of Entamoeba histolytica (256 aa), aa 1-194 (CTR truncated); Cloned from E. histolytica cDNA into pET28-Sumo; also called EhRNase194; SeMet-RNaseIII194; source: E. coli BL21(DE3) in M9 medium with Se-Met, purified (HisTrap, Ulp1 digestion, HisTrap, HiTrap Q, Superdex 75); not shown: His-Sumo, N-terminal, cleaved
# B2: RNA50 (dsRNA)
# RNA 1: GGGAGAAACGCGGCCUCUUCUUAUUUAUGGCGACAUGUUGUGCCUCUCCC
# RNA 2: GGGAGAGGCACAACAUGUCGCCAUAAAUAAGAAGAGGCCGCGUUUCUCCC
# B3: RNA100 (dsRNA)
# RNA 1: GGGAGAAACGCGGCCUCUUCUUAUUUAUGGCGACAUGUUGUGCCACAUAUUGAGCCAGUAGCGCGGUGUAUUAUACCAGACCUUAUUGGUAUGGUCUCCC
# RNA 2: GGGAGACCAUACCAAUAAGGUCUGGUAUAAUACACCGCGCUACUGGCUCAAUAUGUGGCACAACAUGUCGCCAUAAAUAAGAAGAGGCCGCGUUUCUCCC
# B4: RNA70 (dsRNA)
# RNA 1: GGGAGAAACGCGGCCUCUUCUUAUUUAUGGCGACAUGUUGUGCCACAUAUUGAGCCAGUAGCGCUCUCCC
# RNA 2: GGGAGAGCGCUACUGGCUCAAUAUGUGGCACAACAUGUCGCCAUAAAUAAGAAGAGGCCGCGUUUCUCCC
# B5: RNA25 (dsRNA)
# RNA 1: GGGAGAAACGCGGCCUCUUUCUCCC
# RNA 2: GGGAGAAAGAGGCCGCGUUUCUCCC
# B6: EhRNaseIII229 (EhRNaseIII aa 1-229) (domain or fragment, Entamoeba histolytica, UniProt C4LU64 1-229, looked up)
# chain: MSSTTLHNAMQYTAFDVLSSILNLMKADPLYDLLQLNQAYSSQDQEYEKNEFYGDSYLEERASSLVLKFLRKYEQIPFEMYSGLRIHTVKNQTLGEIFDLLHLGDTKTFEKKKKGDLVESLIGGCVLLSQRENATLFLLFAHALIDYIFYHSSYIYFNANPPKLVKEEIITDIQNWFKDKLFYYRSSLEKYQTDPTNFYLEEQHVSVDLFDDKEEVDTNDIDYILSSSD
# notes: EhRNaseIII, the only RNaseIII protein of Entamoeba histolytica (256 aa), aa 1-229 (CTR truncated); Cloned from E. histolytica cDNA into pET28-Sumo; Residues after about 195 were disordered in the crystal; also called EhRNase229; source: E. coli BL21(DE3), purified (HisTrap, Ulp1 digestion, HisTrap, HiTrap Q, Superdex 75); not shown: His-Sumo, N-terminal, cleaved
# Tests used:
# [1] = target: the molecule itself; experiment: crystal structure; SeMet-EhRNaseIII194, hanging drop, 16 °C, 1.26 M (NH4)2SO4, 0.1 M Hepes pH 7.8; P212121, SAD phasing, 2.10 Å
# EhRNaseIII229 [2] = target: T1, EhRNaseIII229 (Entamoeba histolytica, UniProt C4LU64 2-229); experiment: EMSA; 5 mM Mg2+; up to 1e-3 M; EMSA (1x): 30 mM Tris-HCl pH 7.5, 30 mM NaCl, 5 mM MgCl2, 1 mM DTT, 0.1 mM EDTA, 5% glycerol; room temperature 10 min then ice 20 min; 6% native PAGE, 0.5x TBE; settings: protein: recombinant, tags: His-Sumo removed by Ulp1, chain copies: 2, blunt
# T1 sequence: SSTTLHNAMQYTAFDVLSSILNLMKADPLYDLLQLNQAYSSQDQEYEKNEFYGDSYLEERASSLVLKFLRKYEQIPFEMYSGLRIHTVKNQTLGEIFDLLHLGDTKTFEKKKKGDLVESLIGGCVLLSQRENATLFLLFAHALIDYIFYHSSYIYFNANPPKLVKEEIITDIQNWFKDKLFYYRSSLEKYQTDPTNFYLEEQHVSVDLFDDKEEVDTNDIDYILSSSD
# [3] = target: T2, EhRNaseIII256 (full-length EhRNaseIII) (Entamoeba histolytica, UniProt C4LU64 2-256); experiment: as above; settings: protein: recombinant, tags: His-Sumo removed by Ulp1, chain copies: 2, blunt
# T2 sequence: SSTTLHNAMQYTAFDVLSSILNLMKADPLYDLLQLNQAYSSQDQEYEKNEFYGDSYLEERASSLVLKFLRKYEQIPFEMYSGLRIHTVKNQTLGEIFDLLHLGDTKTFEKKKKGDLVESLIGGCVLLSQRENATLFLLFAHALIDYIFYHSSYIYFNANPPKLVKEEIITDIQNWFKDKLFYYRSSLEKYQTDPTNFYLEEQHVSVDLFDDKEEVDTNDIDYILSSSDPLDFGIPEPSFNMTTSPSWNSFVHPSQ
# [4] = target: T2, EhRNaseIII256 (full-length EhRNaseIII); experiment: EMSA; 5 mM Mg2+; EMSA (1x): 30 mM Tris-HCl pH 7.5, 30 mM NaCl, 5 mM MgCl2, 1 mM DTT, 0.1 mM EDTA, 5% glycerol; room temperature 10 min then ice 20 min; 6% native PAGE, 0.5x TBE; settings: protein: recombinant, tags: His-Sumo removed by Ulp1, chain copies: 2, blunt
# EhRNaseIII194 [5] = target: T3, EhRNaseIII194 (Entamoeba histolytica, UniProt C4LU64 2-194); experiment: EMSA; 5 mM Mg2+; shift at 5e-5 M; EMSA (1x): 30 mM Tris-HCl pH 7.5, 30 mM NaCl, 5 mM MgCl2, 1 mM DTT, 0.1 mM EDTA, 5% glycerol; room temperature 10 min then ice 20 min; 6% native PAGE, 0.5x TBE; settings: protein: recombinant; tags: His-Sumo removed by Ulp1; chain copies: 2; blunt, 100 bp
# T3 sequence: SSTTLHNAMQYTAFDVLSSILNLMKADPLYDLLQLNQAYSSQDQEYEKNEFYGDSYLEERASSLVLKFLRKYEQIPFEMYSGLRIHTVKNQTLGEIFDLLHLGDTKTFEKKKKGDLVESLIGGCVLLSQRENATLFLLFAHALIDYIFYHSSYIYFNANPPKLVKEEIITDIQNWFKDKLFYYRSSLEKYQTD
# EhRNaseIII229 [6] = target: T1, EhRNaseIII229; experiment: EMSA; 5 mM Mg2+; almost complete shift at 3e-4 M; EMSA (1x): 30 mM Tris-HCl pH 7.5, 30 mM NaCl, 5 mM MgCl2, 1 mM DTT, 0.1 mM EDTA, 5% glycerol; room temperature 10 min then ice 20 min; 6% native PAGE, 0.5x TBE; settings: protein: recombinant; tags: His-Sumo removed by Ulp1; chain copies: 2; blunt, 100 bp
# EhRNaseIII194 [7] = target: T3, EhRNaseIII194; experiment: EMSA; 5 mM Mg2+; binds at 1e-4 M; EMSA (1x): 30 mM Tris-HCl pH 7.5, 30 mM NaCl, 5 mM MgCl2, 1 mM DTT, 0.1 mM EDTA, 5% glycerol; room temperature 10 min then ice 20 min; 6% native PAGE, 0.5x TBE; settings: protein: recombinant; tags: His-Sumo removed by Ulp1; chain copies: 2; blunt, 70 bp
# EhRNaseIII229 [8] = target: T1, EhRNaseIII229; experiment: EMSA; 5 mM Mg2+; EMSA (1x): 30 mM Tris-HCl pH 7.5, 30 mM NaCl, 5 mM MgCl2, 1 mM DTT, 0.1 mM EDTA, 5% glycerol; room temperature 10 min then ice 20 min; 6% native PAGE, 0.5x TBE; settings: protein: recombinant; tags: His-Sumo removed by Ulp1; chain copies: 2; blunt, 25 bp
# EhRNaseIII194 [9] = target: T3, EhRNaseIII194; experiment: EMSA; 5 mM Mg2+; up to 1e-3 M; EMSA (1x): 30 mM Tris-HCl pH 7.5, 30 mM NaCl, 5 mM MgCl2, 1 mM DTT, 0.1 mM EDTA, 5% glycerol; room temperature 10 min then ice 20 min; 6% native PAGE, 0.5x TBE; settings: protein: recombinant; tags: His-Sumo removed by Ulp1; chain copies: 2; blunt, 25 bp
# [10] = target: the molecule itself; experiment: crystal structure; EhRNaseIII229, sitting drop, 16 °C, 1.6 M (NH4)2SO4, 0.02 M MgCl2, 0.05 M Tris-HCl pH 7.5; apo (1.90 Å) and soaked with 10 mM MnCl2 (2.05 Å); P212121, molecular replacement
binder,measurement,setting,value
B1,stoichiometry N,[1],2
B2,binding result,EhRNaseIII229 [2]; 50 bp,no binding
same,binding result,[3]; 50 bp,no binding
B3,Kd,[4]; 100 bp,~600 µM
same,binding signal,EhRNaseIII194 [5],~6 fold affinity vs EhRNaseIII256 (2-fold vs EhRNaseIII229)
same,binding signal,EhRNaseIII229 [6],> 2 fold affinity vs EhRNaseIII256 (at least)
B4,binding result,EhRNaseIII229 [2]; 70 bp,no binding
same,binding result,[3]; 70 bp,no binding
same,binding result,EhRNaseIII194 [7],binds
B5,binding result,EhRNaseIII229 [8],no binding
same,binding result,[4]; 25 bp,no binding
same,binding result,EhRNaseIII194 [9],no binding
B6,stoichiometry N,[10],2
